Results as given in PMC12339401 (2025).

Legend:
NIX(1–182)-GST = NIX(1–182)-GST (Homo sapiens (Human), UniProt O60238); test: microscopy-based bead assay
[1] = target: GST-FAM134C (residues 250–466) (Homo sapiens (Human), UniProt Q86VR2); test: microscopy-based bead assay
GST-FAM134C (residues 250–466), sequence (Q86VR2 250-466): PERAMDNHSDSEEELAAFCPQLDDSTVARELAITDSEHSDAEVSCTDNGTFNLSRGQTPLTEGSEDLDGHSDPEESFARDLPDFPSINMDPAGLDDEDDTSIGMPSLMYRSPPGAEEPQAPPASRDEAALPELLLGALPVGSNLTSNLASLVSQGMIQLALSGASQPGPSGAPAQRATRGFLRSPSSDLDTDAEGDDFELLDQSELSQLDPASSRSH

NIX(1–182)-GST, sequence (O60238 1-182): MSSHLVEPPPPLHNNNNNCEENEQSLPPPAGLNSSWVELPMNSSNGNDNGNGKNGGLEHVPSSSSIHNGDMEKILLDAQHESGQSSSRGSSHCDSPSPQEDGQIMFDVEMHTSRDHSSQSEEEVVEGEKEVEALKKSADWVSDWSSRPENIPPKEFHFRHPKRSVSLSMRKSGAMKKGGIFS

B1: GFP-tagged TBK1 (protein)
chain: MQSTSNHLWLLSDILGQGATANVFRGRHKKTGDLFAIKVFNNISFLRPVDVQMREFEVLKKLNHKNIVKLFAIEEETTTRHKVLIMEFCPCGSLYTVLEEPSNAYGLPESEFLIVLRDVVGGMNHLRENGIVHRDIKPGNIMRVIGEDGQSVYKLTDFGAARELEDDEQFVSLYGTEEYLHPDMYERAVLRKDHQKKYGATVDLWSIGVTFYHAATGSLPFRPFEGPRRNKEVMYKIITGKPSGAISGVQKAENGPIDWSGDMPVSCSLSRGLQVLLTPVLANILEADQEKCWGFDQFFAETSDILHRMVIHVFSLQQMTAHKIYIHSYNTATIFHELVYKQTKIISSNQELIYEGRRLVLEPGRLAQHFPKTTEENPIFVVSREPLNTIGLIYEKISLPKVHPRYDLDGDASMAKAITGVVCYACRIASTLLLYQELMRKGIRWLIELIKDDYNETVHKKTEVVITLDFCIRNIEKTVKVYEKLMKINLEAAELGEISDIHTKLLRLSSSQGTIETSLQDIDSRLSPGGSLADAWAHQEGTHPKDRNVEKLQVLLNCMTEIYYQFKKDKAERRLAYNEEQIHKFDKQKLYYHATKAMTHFTDECVKKYEAFLNKSEEWIRKMLHLRKQLLSLTNQCFDIEEEVSKYQEYTNELQETLPQKMFTASSGIKHTMTPIYPSSNTLVEMTLGMKKLKEEMEGVVKELAENNHILERFGSLTMDGGLRNVDCL
binding result (NIX(1–182)-GST): no binding

B2: mCherry-WIPI3 (protein)
chain: not shown
binding result (NIX(1–182)-GST): no binding

B3: GFP-FIP200 C-terminal region (CTR), residues 1429–1591 (protein)
chain: ADEGRVDSAMETSMMSVQENIHMLSEEKQRIMLLERTLQLKEEENKRLNQRLMSQSMSSVSSRHSEKIAIRDFQVGDLVLIILDERHDNYVLFTVSPTLYFLHSESLPALDLKPASGASRRPWVLGKVMEKEYCQAKKAQNRFKVPLGTKFYRVKAVSWNKKV
binding result [1]: binds | binding result (NIX(1–182)-GST): no binding

B4: mCherry-tagged WIPI1 (protein)
chain: MEAEAADAPPGGVESALSCFSFNQDCTSLATGTKAGYKLFSLSSVEQLDQVHGSNEIPDVYIVERLFSSSLVVVVSHTKPRQMNVYHFKKGTEICNYSYSSNILSIRLNRQRLLVCLEESIYIHNIKDMKLLKTLLDIPANPTGLCALSINHSNSYLAYPGSLTSGEIVLYDGNSLKTVCTIAAHEGTLAAITFNASGSKLASASEKGTVIRVFSVPDGQKLYEFRRGMKRYVTISSLVFSMDSQFLCASSNTETVHIFKLEQVTNSRPEEPSTWSGYMGKMFMAATNYLPTQVSDMMHQDRAFATARLNFSGQRNICTLSTIQKLPRLLVASSSGHLYMYNLDPQDGGECVLIKTHSLLGSGTTEENKENDLRPSLPQSYAATVARPSASSASTVPGYSEDGGALRGEVIPEHEFATGPVCLDDENEFPPIILCRGNQKGKTKQS
binding result (NIX(1–182)-GST): binds
